According to article PMC3032050, “LPS ligand and culture additives improve production of monomeric MD-1 and 2 in Pichia pastoris by decreasing aggregation and intermolecular disulfide bonding” (Protein Expression and Purification, 2011):

T1: human MD-2 (myeloid differentiation factor 2) (human), Q9Y6Y9
T1 chain: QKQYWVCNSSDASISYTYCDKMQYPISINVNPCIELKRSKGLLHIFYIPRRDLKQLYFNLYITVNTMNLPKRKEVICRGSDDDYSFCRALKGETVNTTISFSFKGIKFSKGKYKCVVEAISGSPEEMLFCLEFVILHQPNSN

B1: human MD-2 (myeloid differentiation factor 2), Q9Y6Y9 19-160 (natural protein)
chain: T1 chain
B2: human MD-1 (myeloid differentiation factor 1) (natural protein, UniProt O95711 21-162, looked up)
chain: GGGGKAWPTHVVCSDSGLEVLYQSCDPLQDFGFSVEKCSKQLKSNINIRFGIILREDIKELFLDLALMSQGSSVLNFSYPICEAALPKFSFCGRRKGEQIYYAGPVNNPEFTIPQGEYQVLLELYTEKRSTVACANATIMCS
notes: A TEV cleavage site lies between the His6-tag and the protein; Secreted by the S. cerevisiae alpha factor prepro peptide; Glycoprotein; also called hMD-1; source: Pichia pastoris GS115 or KM71H (pPIC9K), secreted; not shown: His6, N-terminal, kept

Key:
[1] = target: T1, human MD-2 (myeloid differentiation …); experiment: SEC; nickel-purified protein on HiLoad 16/60 Superdex 200 in 50 mM sodium acetate, pH 5.0; without additive, or with the anti-aggregation additive (0.2 M MgSO4 for hMD-2) in culture medium and buffers; details: remark: other sources report otherwise
[2] = target: the molecule itself; experiment: non-reducing SDS-PAGE with anti-His Western blot; culture supernatants of GS115 and KM71H cultures, induced without or with culture additives

Row | Binder | percent monomeric (with 0.2 M MgSO4) [1] | binding result [2]
1 | B1 | 15% | 
2 | B2 |  | binds
